# According to patent US7943337B2, “Method for screening a protease” (Asahi Kasei Pharma Corporation, priority 2003, dated 2011):
# B1: carboxypeptidase Y: carboxypeptidase Y (manufactured by Oriental Yeast Co., Ltd.) (protein, UniProt P00729 112-532, looked up)
# Carboxypeptidase Y: KIKDPKILGIDPNVTQYTGYLDVEDEDKHFFFWTFESRNDPAKDPVILWLNGGPGCSSLTGLFFELGPSSIGPDLKPIGNPYSWNSNATVIFLDQPVNVGFSYSGSSGVSNTVAAGKDVYNFLELFFDQFPEYVNKGQDFHIAGESYAGHYIPVFASEILSHKDRNFNLTSVLIGNGLTDPLTQYNYYEPMACGEGGEPSVLPSEECSAMEDSLERCLGLIESCYDSQSVWSCVPATIYCNNAQLAPYQRTGRNVYDIRKDCEGGNLCYPTLQDIDDYLNQDYVKEAVGAEVDHYESCNFDINRNFLFAGDWMKPYHTAVTDLLNQDLPILVYAGDKDFICNWLGNKAWTDVLPWKYDEEFASQKVRNWTASITDEVAGEVKSYKHFTYLRVFNGGHMVPFDVPENALSMVNEWIHGGFSL
# B2: protease type XXVII: protease (type XXVII nagase: manufactured by Sigma-Aldrich Corp.) (protein, UniProt P00782 108-382, looked up)
# Subtilisin BPN': AQSVPYGVSQIKAPALHSQGYTGSNVKVAVIDSGIDSSHPDLKVAGGASMVPSETNPFQDNNSHGTHVAGTVAALNNSIGVLGVAPSASLYAVKVLGADGSGQYSWIINGIEWAIANNMDVINMSLGGPSGSAALKAAVDKAVASGVVVVAAAGNEGTSGSSSTVGYPGKYPSVIAVGAVDSSNQRASFSSVGPELDVMAPGVSIQSTLPGNKYGAYNGTSMASPHVAGAAALILSKHPNWTNTQVRSSLENTTTKLGDSFYYGKGLINVQAAAQ
# Tests used:
# Type in all cases: biochemical
# [1] = Screening of protease for hemoglobin A1c determination (pH 7.5); details: pH 7.5, 37° C. 60 minutes; 550 nm, reference 595 nm; FOD923 developing solution
# Method: (§1) A screening method is shown in which a protease that cleaves a glycated peptide from N-terminal-glycated pentapeptide of a hemoglobin β-chain without substantially cleaving a glycated amino acid or glycated peptide from N-terminal-glycated pentapeptide of a hemoglobin α-chain. Each 10 μl of a sample for screening was placed in 3 wells of a 96-well plate, respectively. Then, the first well was supplemented with 50 μl of an α-solution, the second well was supplemented with 50 μl of a β-solution, and the third well was supplemented with 50 μl of a control solution. After the plate was incubated at 37° C. for 60 minutes, 50 μl of distilled water and 50 μl of a developing solution were added, and the whole was left at room temperature for 30 minutes. Then, the absorbance at a measuring wavelength of 550 nm and a reference wavelength of 595 nm were determined using a Microplate Reader (model 550, manufactured by Bio-Rad), to select a sample having a difference in the absorbance between the β-solution-supplemented well and the control solution-supplemented well larger than a difference in the absorbance between the α-solution-supplemented well and the control solution-supplemented well. Thus the protease of object was screened. The samples to be used include: carboxypeptidase B (manufactured by Sigma-Aldrich Corp.); carboxypeptidase W (manufactured by Wako Pure Chemical Industries, Ltd.); carboxypeptidase Y (manufactured by Oriental Yeast Co., Ltd.); protease (type XXVII nagase: manufactured by Sigma-Aldrich Corp.); protease (type VIII Subtilisin Carlsberg: manufactured by Sigma-Aldrich Corp.); protease (type XXIV Bacterial: manufactured by Sigma-Aldrich Corp.); Proteinase K (manufactured by Wako Pure Chemical Industries, Ltd.); neutral proteinase (manufactured by Toyobo Co., Ltd.); carboxypeptidase A (manufactured by Wako Pure Chemical Industries, Ltd.); thermolysin (manufactured by Wako Pure Chemical Industries, Ltd.); and distilled water. To confirm a degree of color development caused by a developing solution, 10 μl of 1 mM FVH (manufactured by Peptide Institute Inc.) and 1 mM FVL (manufactured by Peptide Institute Inc.) were placed in a well severally, followed by adding 50 μl of the control solution. The whole was incubated at 37° C. for 60 minutes. Then, 50 μl of distilled water and 50 μl of the developing solution were added and the whole was left at room temperature for 30 minutes, followed by the determination in a similar manner as described above.
# (§2) 0.2 mM α-Glycated pentapeptide (manufactured by Peptide Institute Inc.)
# (§3) 0.09% 4-Aminoantipyrine (manufactured by Wako Pure Chemical Industries, Ltd.)
# (§4) 0.06% TODB (manufactured by Dojindo Laboratories)
# (§5) 15 U/ml Peroxidase (manufactured by Sigma-Aldrich Corp.)
# (§6) Various bacteria were cultured with shaking in Difco Lactobacilli MRS Broth (manufactured by Becton, Dickinson and Company), a MM medium (2.5% mannose, 2.5% beer yeast extract, pH7.0), and a YPG medium (2% glucose, 1% polypeptone, 2% yeast extract, 0.1% potassium dihydrogen phosphate, 0.05% magnesium sulfate heptahydrate, pH 7.0) at a temperature of from 28 to 30° C. for 1 to 7 days. Then, cells were removed by centrifugation from the culture solutions to obtain culture supernatants. A sample was prepared by diluting the obtained culture supernatants 10-fold with a 10 mM potassium phosphate buffer (pH7.5), and the determination was performed in a similar manner as Example 1.
# [2] = as above; details: pH 7.5, 37° C. 60 minutes; 550 nm, reference 595 nm; FOD923 developing solution; remark: listed apart in the source
# Method: as §1
# (§7) 0.2 mM β-Glycated pentapeptide (manufactured by Peptide Institute Inc.)
# as §3, §4, §5, §6
# [3] = Screening of protease (pH 7.5), control solution without substrate; details: pH 7.5, no substrate; 550 nm, reference 595 nm
# Method: as §1, §3, §4, §5, §6
# [4] = Screening of protease for hemoglobin A1c determination (pH 3.5); details: pH 3.5, 37° C. 60 minutes; 550 nm, reference 595 nm; FOD923 developing solution
# Method: (§8) A screening method is shown in which a protease that cleaves a glycated peptide from N-terminal-glycated pentapeptide of a hemoglobin β-chain without substantially cleaving a glycated amino acid or glycated peptide from N-terminal-glycated pentapeptide of a hemoglobin α-chain. Each 10 μl of a sample for screening was placed in 3 wells of a 96-well plate, respectively. Then, the first well was supplemented with 50 μl of an α-solution, the second well was supplemented with 50 μl of a β-solution, and the third well was supplemented with 50 μl of a control solution. After the plate was incubated at 37° C. for 60 minutes, 50 μl of pH-regulating solution and 50 μl of a developing solution were added, and the whole was left at room temperature for 30 minutes. Then, the absorbance at a measuring wavelength of 550 nm and a reference wavelength of 595 nm were determined using a Microplate Reader (model 550, manufactured by Bio-Rad), to select a sample having a difference in the absorbance between the β-solution-supplemented well and the control solution-supplemented well larger than a difference in the absorbance between the α-solution-supplemented well and the control solution-supplemented well. Thus the protease of object was screened. The samples to be used include: carboxypeptidase B (manufactured by Sigma-Aldrich Corp.); carboxypeptidase W (manufactured by Wako Pure Chemical Industries, Ltd.); carboxypeptidase Y (manufactured by Oriental Yeast Co., Ltd.); protease (type XXVII nagase: manufactured by Sigma-Aldrich Corp.); protease (type VIII Subtilisin Carlsberg: manufactured by Sigma-Aldrich Corp.); protease (type XXIV Bacterial: manufactured by Sigma-Aldrich Corp.); Proteinase K (manufactured by Wako Pure Chemical Industries, Ltd.); neutral proteinase (manufactured by Toyobo Co., Ltd.); and distilled water. To confirm a degree of color development caused by a developing solution, 10 μl of 1 mM FVH (manufactured by Peptide Institute Inc.) and 1 mM FVL (manufactured by Peptide Institute Inc.) were placed in a well severally, followed by adding 50 μl of the control solution. The whole was incubated at 37° C. for 60 minutes. Then, 50 μl of a pH-regulating solution and 50 μl of the developing solution were added and the whole was left at room temperature for 30 minutes, followed by the determination in a similar manner as described above.
# (§9) 50 mM Acetate-sodium acetate (pH3.5)
# as §2
# (§10) 0.09% 4-aminoantipyrine (manufactured by Wako Pure Chemical Industries, Ltd.)
# as §4, §5
# [5] = as above; details: pH 3.5, 37° C. 60 minutes; 550 nm, reference 595 nm; FOD923 developing solution; remark: listed apart in the source
# Method: as §8, §9, §7, §10, §4, §5
# [6] = Screening of protease (pH 3.5), control solution without substrate; details: pH 3.5, no substrate; 550 nm, reference 595 nm
# Method: as §8, §9, §10, §4, §5
Molecule,"α-Solution (absorbance, RAW DATA) [1]","β-Solution (absorbance, RAW DATA) [2]","control solution (absorbance, RAW DATA) [3]","α-Solution (absorbance, RAW DATA) [4]","β-Solution (absorbance, RAW DATA) [5]","control solution (absorbance, RAW DATA) [6]"
B1,0.240,0.209,0.031,0.195,0.206,0.034
B2,0.021,0.031,0.016,0.025,0.021,0.019
